In article PMC4703834:

Biological target: Δ4-DgkA (thermostable mutant of Escherichia coli diacylglycerol kinase) (Escherichia coli) (UniProt P0ABN1)
Assay: crystal structure; in meso (lipid cubic phase) crystals of Δ4-DgkA in 9.9 MAG at 4 °C, soaked with zinc-ACP (ternary complex, 2.7 Å) or without nucleotide; synchrotron data at 100 K

stoichiometry N: 3
Substance: Δ4-DgkA (thermostable mutant of Escherichia coli diacylglycerol kinase) (from UniProt P0ABN1 2-122) (enzyme)
